Reference: PMC6566259, “Engineering of Nanobodies Recognizing the Human Chemokine Receptor CCR7” (International Journal of Molecular Sciences, 2019)

Legend:
Details in all cases: partners not purified
[1] = molecular target: T1, CCR7-SmBiT (Homo sapiens, UniProt P32248); test: split reporter (BiFC, NanoBiT); split-luciferase complementation; HEK293 cells co-expressing GPCR-SmBiT and Nb-LgBiT (plasmid ratio 1:1), coelenterazine H 5 µM, luminescence before and after 10 µM isoproterenol, 1.5 µg/mL CCL19 or PBS
T1 construct: Chemokine receptor CCR7, human; amplified from pcDNA3-CCR7-HA and ligated to SmBiT amplified from pAAVS1P-iCLHN; A Gly/Ser linker between CCR7 and SmBiT is surmised from the primer; also called pcDNA3-CCR7-SmBiT; pBiT2.1-C-CCR7-SmBiT; source: HEK293, transiently transfected, in cells; not shown: SmBiT (Small BiT of NanoLuc), C-terminal, kept

[2] = molecular target: T2, CCR7-YFP2 (Homo sapiens, UniProt P32248); test: split reporter (BiFC, NanoBiT); BiFC read by confocal microscopy; HEK293 cells stably expressing CCR7-YFP2, transiently transfected with Nb-YFP1, unstimulated or stimulated with 0.5 µg/mL CCL19, fixed
T2 construct: Chemokine receptor CCR7, human; amplified by PCR and subcloned into the split-YFP2 BiFC vector; also called CC chemokine receptor 7; CCR7-Y2; source: HEK293, transiently or stably transfected, in cells; not shown: split-YFP2, C-terminal, kept

[3] = molecular target: T3, β2AR-YFP2 (human, UniProt P07550); test: split reporter (BiFC, NanoBiT); BiFC read by flow cytometry; HEK293 cells co-expressing Nb-YFP1 and GPCR-YFP2, stimulated 20 min with 10 µM isoproterenol or 0.5 µg/mL CCL19, fixed in 4% formaldehyde
T3 construct: also called β2-adrenergic receptor; ADRB2; source: HEK293, transiently transfected, in cells; not shown: split-YFP2, C-terminal, kept

[4] = molecular target: T4, β2AR-SmBiT (UniProt P07550); test: split reporter (BiFC, NanoBiT); G-protein competition assay based on split-luciferase complementation; HEK293 cells co-expressing GPCR-SmBiT, LgBiT-mini-Gαi and Nb-YFP1 or pcDNA3 (1:1:1), stimulated with 10 µM isoproterenol or 1.5 µg/mL CCL19; fold increase in luminescence over baseline
T4 construct: β2-adrenergic receptor; also called pBiT2.1-C-β2AR-SmBiT; source: HEK293, transiently transfected, in cells; not shown: SmBiT (Small BiT of NanoLuc), C-terminal, kept

[5] = molecular target: T4, β2AR-SmBiT; test: split reporter (BiFC, NanoBiT); split-luciferase complementation; HEK293 cells co-expressing GPCR-SmBiT and Nb-LgBiT (plasmid ratio 1:1), coelenterazine H 5 µM, luminescence before and after 10 µM isoproterenol, 1.5 µg/mL CCL19 or PBS

T1 sequence (P32248 25-378): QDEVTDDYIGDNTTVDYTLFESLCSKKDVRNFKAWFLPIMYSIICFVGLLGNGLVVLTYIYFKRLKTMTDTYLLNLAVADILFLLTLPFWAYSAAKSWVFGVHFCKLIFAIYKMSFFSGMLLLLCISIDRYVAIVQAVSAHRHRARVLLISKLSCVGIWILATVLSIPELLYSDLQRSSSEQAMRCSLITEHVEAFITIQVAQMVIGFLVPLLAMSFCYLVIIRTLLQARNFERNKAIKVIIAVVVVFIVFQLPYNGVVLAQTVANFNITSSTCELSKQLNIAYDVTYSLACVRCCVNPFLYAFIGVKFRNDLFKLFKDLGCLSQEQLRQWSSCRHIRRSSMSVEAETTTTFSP
T2 sequence (P32248 25-378): as above

B1: Nb1-LgBiT (VHH)
VHH: QVQLQESGGGLVQAGGSLRLSCAASGLRFSRNTMGWYRQAPGKQRELVAAIHSGGSTNYANSVKGRFTISRDNAANTVYLQMNSLKPEDTAVYYCNVKDWNNQPNGDDYWGQGTQVTVSS
notes: As the VHH of m3 (Nb1): Nb80 with randomised segments in CDR1 and CDR3; source: HEK293, transiently transfected, in cells; not shown: LgBiT (Large BiT of NanoLuc), C-terminal, kept
binding result [1]: binds

B2: Nb1-YFP1 (VHH)
VHH: B1 VHH
notes: As the VHH of m1 (Nb80) with randomised segments in CDR1 and CDR3; Clone from the synthetically randomised Nb80 library; also called Nb1-Y1; source: HEK293, transiently transfected, in cells; not shown: split-YFP1 (N-terminal part of split-YFP), C-terminal, kept
binding result [2]: binds

B3: Nb5-LgBiT (VHH)
VHH: QVQLQESGGGLVQAGGSLRLSCAASGCVPGPNTMGWYRQAPGKQRELVAAIHSGGSTNYANSVKGRFTISRDNAANTVYLQMNSLKPEDTAVYYCNVKDETRTRHQNDYWGQGTQVTVSS
notes: As the VHH of m5 (Nb5): Nb80 with randomised segments in CDR1 and CDR3; source: HEK293, transiently transfected, in cells; not shown: LgBiT (Large BiT of NanoLuc), C-terminal, kept
binding result [1]: binds

B4: Nb5-YFP1 (VHH)
VHH: B3 VHH
notes: As the VHH of m1 (Nb80) with randomised segments in CDR1 and CDR3; Clone from the synthetically randomised Nb80 library; also called Nb5-Y1; source: HEK293, transiently transfected, in cells; not shown: split-YFP1 (N-terminal part of split-YFP), C-terminal, kept
binding result [2]: binds

B5: Nb38-LgBiT (VHH)
VHH: QVQLQESGGGLVQAGGSLRLSCAASGHTMFSNTMGWYRQAPGKQRELVAAIHSGGSTNYANSVKGRFTISRDNAANTVYLQMNSLKPEDTAVYYCNVKDFLGLIHFRDYWGQGTQVTVSS
notes: As the VHH of m7 (Nb38): Nb80 with randomised segments in CDR1 and CDR3; source: HEK293, transiently transfected, in cells; not shown: LgBiT (Large BiT of NanoLuc), C-terminal, kept
binding result [1]: binds

B6: Nb38-YFP1 (VHH)
VHH: B5 VHH
notes: As the VHH of m1 (Nb80) with randomised segments in CDR1 and CDR3; Clone from the synthetically randomised Nb80 library; also called Nb38-Y1; source: HEK293, transiently transfected, in cells; not shown: split-YFP1 (N-terminal part of split-YFP), C-terminal, kept
binding result [2]: binds

B7: Nb80-YFP1 (VHH)
VHH: QVQLQESGGGLVQAGGSLRLSCAASGSIFSINTMGWYRQAPGKQRELVAAIHSGGSTNYANSVKGRFTISRDNAANTVYLQMNSLKPEDTAVYYCNVKDYGAVLYEYDYWGQGTQVTVSS
notes: Nanobody Nb80 against the β2-adrenergic receptor; The reverse PCR primer appears to encode a His6 stretch at the C-terminus of Nb80, ahead of YFP1 (surmised from the primer); No PDB id is printed; also called Nb80-Y1; pcDNA3-Nb80-YFP1; source: HEK293, transiently transfected, in cells; not shown: split-YFP1 (N-terminal part of split-YFP), C-terminal, kept
binding result [3]: binds
binding result [4]: binds

B8: Nb80-LgBiT (VHH)
VHH: B7 VHH
notes: As the VHH of m1 (Nb80); Nb80 was moved from pcDNA3-Nb80-YFP1 into pcDNA3-CCR7-LgBiT by HindIII and ClaI, followed by site-directed mutagenesis at the junction; A Gly/Ser linker before LgBiT is surmised from the primers; also called pcDNA3-Nb80-LgBiT; source: HEK293, transiently transfected, in cells; not shown: LgBiT (Large BiT of NanoLuc), C-terminal, kept
binding result [5]: binds
